Assay results from PMC9232890.

Biological target: NIST mAb
Experiment: AUC

NIST mAb (antibody)
3%: amount of dimer (%), fit of 20 scans | amount of dimer (%), fit of 50 scans | amount of dimer (%), fit of 100 scans | amount of dimer (%), fit of 250 scans
